According to patent publication US20240018243A1 (NOVOMAB BIOPHARMACEUTICALS, published 2024):

What was measured:
[1] = target: monkey CTLA4 on expressing cells (monkey); assay: cell ELISA on monkey CTLA4 expressing cells, goat anti-human IgG-HRP, OD450
[2] = target: Human CTLA4-FC recombinant protein (human); assay: competition ELISA, human CTLA4-FC coated, blocked ligand CD80-FC-HIS, anti-HIS-HRP, OD450
[3] = target: T1, Human CTLA4-His recombinant protein (human, UniProt P16410 36-162); assay: OCTET (BLI), antibody on protein A biosensor, CTLA4-HIS in solution
T1 construct: also called CTLA4-HIS (Sino Biological); CTLA4 recombinant protein; not shown: His tag
T1 sequence (looked up): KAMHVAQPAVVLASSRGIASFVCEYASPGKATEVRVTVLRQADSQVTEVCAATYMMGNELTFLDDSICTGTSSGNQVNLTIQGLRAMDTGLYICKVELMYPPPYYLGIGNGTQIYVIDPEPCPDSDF
Description: The affinity constant KD of the antibody to CTLA4 was determined using OCTET. Firstly, the protein A biosensor was used to immobilize the antibody to be detected, and the biosensors containing different antibodies were placed in the CTLA4-HIS diluent with the same concentration (Sino Biological) for binding for 4 min. The biosensor was then placed in the PBS for 400 s. The affinity constant KD of the antibody was analyzed by OCTET analysis software, KD is kd/ka.

Molecule Isotype control (antibody) has an EC50 [1] of 799 µg/mL.

Isotype (antibody) gave an IC50 [2] of 43.6 nM.

B1: HCA14-KH (Fc fusion)
chain 1: ESKYGPPCPPCPAPEFLGGPSVFLFPPKPKDTLMISRTPEVTCVVVDVSQEDPEVQFNWYVDGVEVHNAKTKPREEQFNSTYRVVSVLTVLHQDWLNGKEYKCKVSNKGLPSSIEKTISKAKGQPREPQVYTLPPCQEEMTKNQVSLWCLVKGFYPSDIAVEWESNGQPENNYKTTPPVLDSDGSFFLYSRLTVDKSRWQEGNVFSCSVMHEALHNHYTQKSLSLSLGK
chain 2: EVQLLESGGGLVQPGGSLRLSCAASGSIFSINHMAWYRQAPGKQRELVAGVNSRGTTNYVDSVKGRFTISRDNSKNTLYLQMNSLRAEDTAVYYCRALGGAVAAWGQGTLVTVSSGGGGSGGGGSGGGGSESKYGPPCPPCPAPEFLGGPSVFLFPPKPKDTLMISRTPEVTCVVVDVSQEDPEVQFNWYVDGVEVHNAKTKPREEQFNSTYRVVSVLTVLHQDWLNGKEYKCKVSNKGLPSSIEKTISKAKGQPREPQVCTLPPSQEEMTKNQVSLSCAVKGFYPSDIAVEWESNGQPENNYKTTPPVLDSDGSFFLVSRLTVDKSRWQEGNVFSCSVMHEALHNHYTQKSLSLSLGK
notes: also called HCA14 -KB; monovalent antibody
B1 was tested, and the Kd [3] was 13.9 nM, the koff [3] was 0.000481 s⁻¹ and the kon [3] was 34500 M⁻¹ s⁻¹.
